According to patent US20240247072A1 (KEYMED BIOSCIENCES, published 2024):

T1: human CD70, full length, on CHO cells (CHO-human CD70-B07) (human, UniProt P32970 1-193)
T1 construct: whole, on cells; Stably transfected CHO cells; also called CHO-CD70
T1 sequence (looked up): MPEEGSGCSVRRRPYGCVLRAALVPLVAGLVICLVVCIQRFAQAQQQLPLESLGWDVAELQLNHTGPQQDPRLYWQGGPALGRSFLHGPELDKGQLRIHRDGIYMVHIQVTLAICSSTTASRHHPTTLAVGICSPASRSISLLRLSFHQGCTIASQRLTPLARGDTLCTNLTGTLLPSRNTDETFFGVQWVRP

T2: cynomolgus monkey CD70, full length, on CHO cells (CHO-monkey CD70-D01) (cynomolgus monkey, UniProt A0A2K5WTU9 1-190)
T2 construct: whole, on cells; Stably transfected CHO cells; also called CHO-cynomolgus monkey CD70
T2 sequence: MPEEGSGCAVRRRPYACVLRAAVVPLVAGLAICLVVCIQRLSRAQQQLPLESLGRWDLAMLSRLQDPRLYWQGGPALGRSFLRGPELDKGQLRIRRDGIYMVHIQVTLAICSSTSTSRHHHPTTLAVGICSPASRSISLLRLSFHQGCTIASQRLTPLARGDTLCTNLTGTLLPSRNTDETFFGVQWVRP

T3: recombinant trimeric protein of human CD70 extracellular region (human CD70 mIgG Fc (knob) / mouse IgG Fc … (human, UniProt P01863 98-330 = IgG part))
T3 construct: The ELISA and Octet texts say only 'recombinant CD70 protein' / 'CM352 antigen'; also called recombinant human CD70 protein; recombinant CD70 protein
T3 chain 1: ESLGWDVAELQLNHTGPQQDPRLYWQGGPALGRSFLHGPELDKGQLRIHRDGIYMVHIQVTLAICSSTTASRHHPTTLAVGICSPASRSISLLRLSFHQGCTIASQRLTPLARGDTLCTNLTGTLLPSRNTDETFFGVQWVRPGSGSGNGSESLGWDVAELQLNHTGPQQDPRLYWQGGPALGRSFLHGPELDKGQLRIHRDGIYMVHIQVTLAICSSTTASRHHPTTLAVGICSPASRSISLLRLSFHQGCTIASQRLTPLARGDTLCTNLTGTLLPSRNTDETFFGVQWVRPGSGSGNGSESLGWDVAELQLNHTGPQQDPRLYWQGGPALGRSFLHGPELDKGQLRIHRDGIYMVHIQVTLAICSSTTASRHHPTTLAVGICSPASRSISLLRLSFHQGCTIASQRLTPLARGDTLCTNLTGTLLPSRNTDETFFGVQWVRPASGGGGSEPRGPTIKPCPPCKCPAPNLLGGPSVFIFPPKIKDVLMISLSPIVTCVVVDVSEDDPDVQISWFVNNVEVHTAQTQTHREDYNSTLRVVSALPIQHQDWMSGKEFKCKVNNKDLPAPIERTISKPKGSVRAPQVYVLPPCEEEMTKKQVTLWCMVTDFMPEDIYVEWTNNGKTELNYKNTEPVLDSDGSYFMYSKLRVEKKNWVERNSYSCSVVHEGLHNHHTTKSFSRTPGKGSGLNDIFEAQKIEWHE
T3 chain 2: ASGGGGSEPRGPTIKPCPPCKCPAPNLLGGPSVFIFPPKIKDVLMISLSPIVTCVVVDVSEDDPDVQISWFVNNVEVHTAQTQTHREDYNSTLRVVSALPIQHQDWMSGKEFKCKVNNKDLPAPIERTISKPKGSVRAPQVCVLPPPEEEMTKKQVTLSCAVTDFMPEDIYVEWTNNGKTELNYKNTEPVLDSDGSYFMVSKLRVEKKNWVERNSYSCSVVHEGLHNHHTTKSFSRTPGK

T4: recombinant cynomolgus monkey CD70 protein (cynomolgus monkey, UniProt A0A2K5WTU9 39-190)
T4 construct: it stands only in column heads ('Monkey', 'Cynomolgus Monkey CD70/CD27') and in result sentences; also called Monkey (ELISA)
T4 sequence: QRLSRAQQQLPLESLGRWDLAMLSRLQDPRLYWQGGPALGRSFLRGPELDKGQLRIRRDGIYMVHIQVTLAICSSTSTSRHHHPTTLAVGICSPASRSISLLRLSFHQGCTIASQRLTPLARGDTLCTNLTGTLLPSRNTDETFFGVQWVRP


Tests used:
[1] = target: T1, human CD70, full length, on CHO cells …; assay: flow cytometry, Fab on CHO-human CD70 cells
Experimental: (§1) The blank control cell CHO and stably-transfected cell line CHO-CD70 were prepared and added at 5×10⁴ cells/well into a 96-well plate respectively. 50 μL of Fab antibodies with different dilution gradients were added into each well and incubated at 4° C. for 60 minutes. The centrifuge was performed to discard the supernatant. The plate was washed with 0.5% BSA/PBS and added with 50 μL of a secondary antibody solution (Anti-human IgG F (ab′) 2-AF647, Jackson Immuno Research) and incubated at 4° C. for 45 minutes. The excess secondary antibody was washed off with 0.5% BSA. The PBS solution was added to resuspend cells for flow cytometry. The data was collected.

[2] = target: T2, cynomolgus monkey CD70, full length, on …; assay: flow cytometry, Fab on CHO-cynomolgus CD70 cells
Experimental: as §1

[3] = target: T3, recombinant trimeric protein of human …; assay: BLI (Octet), biotin antigen on SA probe, Fab in solution
[4] = target: T3, recombinant trimeric protein of human …; assay: competition ELISA, Fab titrated, human CD27 coated, biotin-CD70
Experimental: (§2) The next day, the plate was washed 3 times with PBS, added with 200 μL of 2% defatted dry milk/PBS, blocked at room temperature for 2 hours, and washed once with PBS, 50 μL of different dilution gradients of Fab antibodies were added and incubated at room temperature for 30 minutes. […] The plate was washed 3 times with PBST and PBS and dried by spinning. A secondary antibody solution Streptavidin-coupled horseradish peroxidase SA-HRP (BD bioscience, Cat. No: 6222697) was diluted with 0.5% BSA in a ratio of 1:8000. 100 μl of the diluent was added into each well and incubate at room temperature for 30 minutes. The plate was washed 3 times with PBST and PBS and dried by spinning. 100 μl of the color development solution (TMB solution, Sigma, Cat. No: T2885) was added into each well and protected from light at 37° C. for reaction. After the substrate developed moderately, 50 μl of 2M concentrated sulfuric acid solution was added into each well to terminate the reaction. The OD450 nm was determined by using an enzyme-linked detector within 30 minutes, and the data was collected.

[5] = target: T4, recombinant cynomolgus monkey CD70 …; assay: competition ELISA, Fab titrated, cynomolgus CD27 coated, biotin-CD70
Experimental: as §2

[6] = target: FcγRIII F158 (CD16a receptor, low-affinity allele) (human) (UniProt P08637); assay: SPR (Biacore)
[7] = target: FcγRIII V158 (CD16a receptor, high-affinity allele) (human) (UniProt P08637); assay: SPR (Biacore)
[8] = target: FcγRIIIF158 on PBMC of FcγRIIIF158/F158 volunteers (human) (UniProt P08637); assay: cell-based or functional assay
[9] = target: FcγRIIIV158 on PBMC of FcγRIIIV158/V158 volunteers (human) (UniProt P08637); assay: cell-based or functional assay
[10] = target: T3, recombinant trimeric protein of human …; assay: cell-based or functional assay
[11] = target: T1, human CD70, full length, on CHO cells …; assay: flow cytometry, humanized IgG1 on CHO-human CD70 cells
Experimental: (§3) The supernatant was discarded and the cells were gently tapped to be loosening. 50 μL of gradient diluted antibodies were added (antibody concentration: from 30 μg/mL, 3-fold dilution for 8 gradients) per well, and incubated at 4° C. for 1 hour. After incubation, 200 μL of 0.5% BSA was added to each well for washing 3 times. 50 μL/well of secondary antibody Alexa Fluro647 anti-human IgG (Jackson ImmunoResearch, Cat. No: 109-606-170) was added and incubated at 4° C. for 45 minutes. At the end of the incubation, each well was washed 3 times with 180 μL of 0.5% BSA and finally resuspended in 50 μL of PBS for iQue (Intellicyt) assay.

[12] = target: T2, cynomolgus monkey CD70, full length, on …; assay: flow cytometry, humanized IgG1 on CHO-cynomolgus monkey CD70 cells
Experimental: as §3

[13] = target: T3, recombinant trimeric protein of human …; assay: competition ELISA, humanized IgG1 titrated, CD27 coated, biotin-CD70, human pair
Experimental: The recombinant human CD27 protein was coated at 1 μg/mL in a 96-well microtiter plate and incubated overnight at 4° C. The next day, the plate was washed 3 times with PBS, added with 200 μL of 2% defatted dry milk/PBS, blocked at room temperature for 2 hours, and washed once with PBS. […] 30 μl of the antibody was added per well and incubated at room temperature for 30 minutes. […] The plate was washed 3 times with PBST and PBS and dried by spinning. A secondary antibody solution Streptavidin-coupled horseradish peroxidase SA-HRP (BD bioscience, Cat. No: 6222697) was diluted with 0.5% BSA in a ratio of 1:8000. 100 μL of the diluent was added into each well and incubated at room temperature for 30 minutes. The plate was washed 3 times with PBST and PBS and dried by spinning. […] of color development solution (TMB solution, Sigma, Cat. No: T2885) was added into each well and protected from light at 37° C. for reaction. After the substrate developed moderately, […] of H₂SO₄ was added into each well to terminate the reaction. The OD450 nm was determined using an enzyme-linked detector within 30 minutes, and the data was collected. The results were calculated by using Graph Pad Prism 5 software. See FIG. 10-1, 10-2, and Table 12 for the results.

[14] = target: T4, recombinant cynomolgus monkey CD70 …; assay: competition ELISA, humanized IgG1 titrated, CD27 coated, biotin-CD70, cynomolgus pair

FcγRIIIF158 on PBMC of FcγRIIIF158/F158 volunteers (human), sequence (P08637 17-254): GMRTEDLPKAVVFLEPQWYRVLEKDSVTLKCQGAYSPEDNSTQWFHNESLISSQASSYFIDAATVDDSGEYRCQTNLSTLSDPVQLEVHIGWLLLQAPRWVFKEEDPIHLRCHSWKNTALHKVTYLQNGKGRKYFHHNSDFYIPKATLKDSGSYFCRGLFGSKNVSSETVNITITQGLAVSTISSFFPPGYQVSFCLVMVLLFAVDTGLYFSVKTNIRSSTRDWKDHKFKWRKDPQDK
FcγRIIIV158 on PBMC of FcγRIIIV158/V158 volunteers (human), sequence (P08637 17-254 F176V): as the sequence (P08637 17-254) above, with F160V counted along it
FcγRIII V158 (CD16a receptor, high-affinity allele) (human), sequence (P08637 17-208 F176V limits assumed): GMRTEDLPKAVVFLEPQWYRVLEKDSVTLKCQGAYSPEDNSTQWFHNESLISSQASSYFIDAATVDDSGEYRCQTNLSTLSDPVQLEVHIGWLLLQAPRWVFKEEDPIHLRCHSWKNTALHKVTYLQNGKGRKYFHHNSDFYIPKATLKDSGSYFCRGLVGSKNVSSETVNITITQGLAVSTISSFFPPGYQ
FcγRIII F158 (CD16a receptor, low-affinity allele) (human), sequence (P08637 17-208 limits assumed): as the sequence (P08637 17-208 F176V limits assumed) above, with V160F counted along it

Binder | EC50 [1] | EC50 [2] | koff [3] | IC50 [4] | IC50 [5] | Kd [6] | Kd [7] | ADCC Killing EC50, Daudi targets, FcγRIIIF158 PBMC [8] | ADCC Maximum killing rate, Daudi targets, FcγRIIIF158 PBMC [8] | ADCC Killing EC50, Daudi targets, FcγRIIIV158 PBMC [9] | ADCC Maximum killing rate, Daudi targets, FcγRIIIV158 PBMC [9] | Inhibition of IL-8 secretion IC50(nM), HT1080-human CD27 cells stimulated with recombinant human CD70 [10] | EC50 [11] | EC50 [12] | IC50 [13] | IC50 [14]
26G11 Fab antibody (Fab, V domains shown, Purified Fab from the mouse Fab phage display library) VH: QVQLQQSGPELVKPGASVKISCKTSGYTFADYTMHWVRQSQGKSLEWIGDIYPNDGGPNNNQKFKDKATLTVDKSSSTAYMELRSLTSEDSAVYYCARPFYYGNYAGFAFWGQGTLVTVSA VL: EMVLTQSPAIMSASPGEKVTMTCSASSSVSYMYWYQQKPGSSPRLLIYDTSNLASGVPVRFSGSGSGTSYSLTISRMEAEDAATYYCQQWSSYPLTFGAGTRLEIK | 40.7 nM | 49.7 nM | 0.000287 s⁻¹ | 4.82 nM | 4.36 nM |  |  |  |  |  |  |  |  |  |  | 
25H7 Fab antibody (Fab, V domains shown, Purified Fab from the mouse Fab phage display library) VH: EIQLVQSGPELKKPGETVKISCKASGYTFTNYGMNWVKQTPGKGLKWMGWINTDTGEPTYADDFKGRFAFSLETSASTAYLQINNLKNEDMATYFCAREEDYRYVFNYWGQGTTLTVSS VL: DIQMTQTTSSLSASLGDRVTISCRASQDISNYLNWYQQKPDGTVKLLIYYTSRLHSGVPSRFSGSGSGTDYSLTISNLEQEDIATYFCQQGVTLPLTFGAGTKLELK | 15.5 nM | 23.4 nM | 0.000326 s⁻¹ | 0.76 nM | 14.4 nM |  |  |  |  |  |  |  |  |  |  | 
39H5 Fab antibody (Fab, V domains shown, Purified Fab from the mouse Fab phage display library) VH: EIQLVQSGPELKKPGETVKISCKASGYTFTNYGMNWVKQAPGQGLKWMGWINTYTGEPTYADDFTGRFAFSLETSASTAYLQINNLKNEDMAAYFCAREEDYRYVFNYWGQGTTLTVSS VL: DIQMIQSTSSLSASLGNRVTISCRASQDISNYLNWYQQKPDGTVKLLIYDTSRLHAGVPSRFSGSGSGTDYSLTISNLEQEDIATYFCQQGVTLPLTFGAGTKLEIK | 8.7 nM | 10.2 nM | 9e-05 s⁻¹ | 0.38 nM | 0.37 nM |  |  |  |  |  |  |  |  |  |  | 
humanized antibody Ab004 (IgG1 wild type) (antibody, V domains shown, also called Ab004 IgG1 wt; h39H5 VHv2 + h39H5 VKv1) VH: QVQLVQSGSELKKPGASVKVSCKASGYTFTNYGMNWVRQAPGQGLEWMGWINTYTGEPTYADGFTGRFVFSLDTSASTAYLQISSLKAEDTAVYFCAREEDYRYVFNYWGQGTLVTVSS VL: DIQMTQSPSSLSASVGDRVTITCQASQDISNYLNWYQQKPGKAPKLLIYDTSRLHAGVPSRFSGSGSGTDYTFTISSLQPEDIATYFCQQGVTLPLTFGQGTKLEIK |  |  |  |  |  | 1300 nM | 565 nM | 0.23 nM | 13% | 0.22 nM | 40% | 11 nM | 2.15 nM | 3.39 nM | 0.04 nM | 0.05 nM
